These results are taken from paper PMC10453832, “Increased Actin Binding Is a Shared Molecular Consequence of Numerous SCA5 Mutations in β-III-Spectrin” (Cells, 2023).

Positions count from the first letter of the chain named. Names and notes keep the numbering of the source.

Assay [1] deals with T1, F-actin from rabbit skeletal muscle (rabbit, UniProt P68135 1-377). Kind of assay: co-sedimentation; 2 µM ABD protein with increasing F-actin (3-120 µM) in F-buffer (10 mM Tris pH 7.5, 150 mM NaCl, 0.5 mM ATP, 2 mM MgCl2, 1 mM DTT); 30 min at room temperature; 50,000 RPM 30 min 25 °C; ABD left in supernatant quantified by SDS-PAGE and Coomassie; one-site fit with Bmax constrained to 1. The settings on record: both partners purified.

In assay [2] the target is T1, F-actin from rabbit skeletal muscle. Described as above. Conditions: both partners purified. The source holds these as a separate data set.

B1: β-III-spectrin actin-binding domain, wild-type (domain or fragment)
chain: MSSTLSPTDFDSLEIQGQYSDINNRWDLPDSDWDNDSSSARLFERSRIKALADEREAVQKKTFTKWVNSHLARVTCRVGDLYSDLRDGRNLLRLLEVLSGEILPKPTKGRMRIHCLENVDKALQFLKEQKVHLENMGSHDIVDGNHRLTLGLVWTIILRFQIQDISVETEDNKEKKSAKDALLLWCQMKTAGYPNVNVHNFTTSWRDGLAFNAIVHKHRPDLLDFESLKKCNAHYNLQNAFNLAEKELGLTKLLDPEDVNVDQPDEKSIITYVATYYHYFSKMK
notes: Construct pE-SUMO-ABD WT; also called ABD WT; wild-type ABD; source: Rosetta 2 (DE3) E. coli, purified (Ni-NTA, tag cleaved with Ulp1, second Ni-NTA)
For the molecule B1, the dissociation constant (Kd) (commonly the equilibrium constant for the complex coming apart) in assay [1] was found to be 55.2 µM. This counts as double-digit micromolar.

B2: β-III-spectrin actin-binding domain K61E (domain or fragment)
chain: B1 chain with K61E
notes: mutation found in a patient; also called K61E ABD; source: Rosetta 2 (DE3) E. coli, purified (Ni-NTA, tag cleaved with Ulp1, second Ni-NTA)
In turn, B2 gave a dissociation constant (Kd) in assay [1] of less than 1 µM.

B3: β-III-spectrin actin-binding domain V58M (domain or fragment)
chain: B1 chain with V58M
notes: mutation found in a patient; also called V58M ABD; source: Rosetta 2 (DE3) E. coli, purified (Ni-NTA, tag cleaved with Ulp1, second Ni-NTA)
Take B3: the Kd in assay [1] came out at 10.2 µM.

B4: β-III-spectrin actin-binding domain K65E (domain or fragment)
chain: B1 chain with K65E
notes: mutation found in a patient; also called K65E ABD; source: Rosetta 2 (DE3) E. coli, purified (Ni-NTA, tag cleaved with Ulp1, second Ni-NTA)
B4 had a dissociation constant (Kd) in assay [1] of less than 1 µM.

B5: β-III-spectrin actin-binding domain L253P (domain or fragment)
chain: B1 chain with L253P
notes: Construct pE-SUMO-ABD-L253P; Mutation found in SCA5 patients; also called L253P ABD; source: Rosetta 2 (DE3) E. coli, purified (Ni-NTA, tag cleaved with Ulp1, second Ni-NTA)
B5: the dissociation constant Kd in assay [1] was less than 1 µM.

B6: β-III-spectrin actin-binding domain F160C (domain or fragment)
chain: B1 chain with F160C
notes: mutation found in a patient; The methods paragraph prints F16C, everywhere else F160C; also called F160C ABD; F16C (as printed in the methods); source: Rosetta 2 (DE3) E. coli, purified (Ni-NTA, tag cleaved with Ulp1, second Ni-NTA)
As to B6, the Kd in assay [1] is less than 1 µM.

B7: β-III-spectrin actin-binding domain H278R (domain or fragment)
chain: B1 chain with H278R
notes: mutation found in a patient; also called H278R ABD; source: Rosetta 2 (DE3) E. coli, purified (Ni-NTA, tag cleaved with Ulp1, second Ni-NTA)
As to B7, the Kd in assay [1] was 6.7 µM. In other words, the single-digit micromolar range.

B8: β-III-spectrin actin-binding domain Y272H (domain or fragment)
chain: B1 chain with Y272H
notes: mutation found in a patient and a parent; also called Y272H ABD; source: Rosetta 2 (DE3) E. coli, purified (Ni-NTA, tag cleaved with Ulp1, second Ni-NTA)
For B8, the figures for the equilibrium dissociation constant (Kd) in assay [2] and in assay [1] were 15.5 µM and 15.3 µM, respectively.

B9: β-III-spectrin actin-binding domain D255G (domain or fragment)
chain: B1 chain with D255G
notes: mutation found in a patient; also called D255G ABD; source: Rosetta 2 (DE3) E. coli, purified (Ni-NTA, tag cleaved with Ulp1, second Ni-NTA)
For the molecule B9, in assay [1], binding was put at a Kd of 7.3 µM.

B10: β-III-spectrin actin-binding domain T62I (domain or fragment)
chain: B1 chain with T62I
notes: mutation found in a patient; also called T62I ABD; source: Rosetta 2 (DE3) E. coli, purified (Ni-NTA, tag cleaved with Ulp1, second Ni-NTA)
In turn, B10 returned a dissociation constant Kd in assay [1] of 2.4 µM.

B11: β-III-spectrin actin-binding domain T271I (domain or fragment)
chain: B1 chain with T271I
notes: mutation found in a patient; also called T271I ABD; source: Rosetta 2 (DE3) E. coli, purified (Ni-NTA, tag cleaved with Ulp1, second Ni-NTA)
For B11, the Kd in assay [1] was less than 1 µM.
